From patent US20060211627A1 (BURNHAM INSTITUTE, published 2006) come the findings set out here.

Square brackets hold non-standard residues; d marks the D form. Ends that are not written are not given here. 2Nal = N[C@@H](Cc1ccc2ccccc2c1)C(=O)O; d2Nal = N[C@H](Cc1ccc2ccccc2c1)C(=O)O; 2Thi = N[C@@H](Cc1cccs1)C(=O)O; Cha = N[C@@H](CC1CCCCC1)C(=O)O; d2Thi = N[C@H](Cc1cccs1)C(=O)O; dCha = N[C@H](CC1CCCCC1)C(=O)O

For one test, the target named is GST-BIR3RING (human) (UniProt P98170). Description: fluorescence polarization competition; unlabeled SMAC 0 to 50 µM against 400 nM rhodamine-SMAC and 1 µM GST-BIR3RING. Background: Polarisation of emitted light reports the rotation of a fluorescent probe.
In a further test the target is GST-XIAP (human, UniProt P98170 1-497). Description: cell-based or functional assay.
GST-XIAP, sequence (P98170 whole entry): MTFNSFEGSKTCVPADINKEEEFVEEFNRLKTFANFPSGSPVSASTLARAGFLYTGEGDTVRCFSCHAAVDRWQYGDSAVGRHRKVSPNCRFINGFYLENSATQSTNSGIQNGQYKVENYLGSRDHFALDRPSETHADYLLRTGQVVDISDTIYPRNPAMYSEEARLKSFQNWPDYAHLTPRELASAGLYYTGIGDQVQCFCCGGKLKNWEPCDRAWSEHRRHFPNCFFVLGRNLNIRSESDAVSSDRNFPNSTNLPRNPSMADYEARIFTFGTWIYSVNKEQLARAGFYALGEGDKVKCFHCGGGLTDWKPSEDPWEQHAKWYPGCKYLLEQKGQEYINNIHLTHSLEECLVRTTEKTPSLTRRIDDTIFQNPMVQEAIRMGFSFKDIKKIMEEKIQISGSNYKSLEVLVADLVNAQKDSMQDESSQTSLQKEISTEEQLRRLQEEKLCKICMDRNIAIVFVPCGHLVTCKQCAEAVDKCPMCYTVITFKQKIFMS

GST-BIR3RING (human), sequence (P98170 243-497): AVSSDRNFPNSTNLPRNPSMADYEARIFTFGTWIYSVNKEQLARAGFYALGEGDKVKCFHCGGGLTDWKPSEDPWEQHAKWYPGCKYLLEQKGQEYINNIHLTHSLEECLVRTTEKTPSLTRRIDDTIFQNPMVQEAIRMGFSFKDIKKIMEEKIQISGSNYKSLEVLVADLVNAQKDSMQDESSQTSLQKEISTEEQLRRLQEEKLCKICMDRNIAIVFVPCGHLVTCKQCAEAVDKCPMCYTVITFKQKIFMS

What is called IC50 is the concentration that gives 50% inhibition. Low values mean greater potency, high ones weaker potency. unlabelled SMAC (peptide): in the test with GST-BIR3RING (human), the half-inhibitory concentration (IC50) stood at 21 µM.

B1: TPI 1352-6 (peptide)
peptide: A[dW]W[2Thi]
As for B1, the “ratio of Vmax with and without peptide, caspase derepression assay” value (from here on “ratio of Vmax with and without peptide”) with GST-XIAP is over 2.4.

B2: TPI 1352-72 (peptide)
peptide: [2Nal][d2Thi][dF][dW]
In the case of B2, the “ratio of Vmax with and without peptide” value with GST-XIAP was over 2.4.

B3: TPI 1332-41 (peptide)
peptide: [Cha][d2Nal]W[2Thi]
As to B3, the “ratio of Vmax with and without peptide” value with GST-XIAP is over 2.4.

B4: TPI 1352-66 (peptide)
peptide: [2Nal][dCha]W[dW]
For the molecule B4, the “ratio of Vmax with and without peptide” value in the test with GST-XIAP was over 2.4.

B5: TPI 1332/1352-47 (peptide)
peptide: A[dW]W[2Thi]
For B5, the “ratio of Vmax with and without peptide” value with GST-XIAP is over 2.4.

B6: TPI 1332/1352-1 (peptide)
peptide: AWW[2Thi]
modifications: also: some Trp may retain formyl protecting groups
B6: the “ratio of Vmax with and without peptide” value with GST-XIAP was over 2.4.
